Assay [1] addresses T1, Human FcRn (biotinylated human FcRn) (human, UniProt P61769 21-119).
T1 construct: Biotinylated human FcRn captured on a Series S Sensor Chip SA; also called human neonatal Fc receptor; hFcRn
Nature of the assay: SPR Biacore 8K+, biotinylated hFcRn on SA chip (~700 RU), pH 6.0, bivalent analyte fit.

For assay [2], the target named is T1, Human FcRn (biotinylated human FcRn). The assay can be described thus: SPR Biacore 8K+, biotinylated hFcRn on SA chip (~700 RU), pH 6.0, bivalent analyte fit (KD1).
The target is the same in assay [3]. The assay can be described thus: SPR Biacore 8K+, biotinylated hFcRn on SA chip (~700 RU), pH 6.0, bivalent analyte fit (kd1). (Surface plasmon resonance follows binding to a sensor surface in real time, without labels.)
For assay [4] the target is unchanged. The assay can be described thus: SPR Biacore 8K+, biotinylated hFcRn on SA chip (~700 RU), pH 6.0, bivalent analyte fit (ka1).
Assay [5] addresses Human serum albumin (HSA; Sigma-Aldrich Cat No. A8763) (human, UniProt P02768 25-609). Nature of the assay: SPR Biacore 8K+, HSA on C1 chip, pH 7.4, 1:1 fit.
In assay [6] the target is T1, Human FcRn (biotinylated human FcRn). Nature of the assay: SPR Biacore 8K+, biotinylated hFcRn on SA chip (~500-600 RU), pH 6.0, bivalent analyte fit (ka1).
For assay [7], the target named is Mouse serum albumin (MSA; Albumin Bioscience Cat No. 2601) (mouse, UniProt P07724 25-608). The assay can be described thus: SPR Biacore 8K+, MSA on C1 chip, pH 7.4, 1:1 fit (off-rate only).
The target in assay [8] is T1, Human FcRn (biotinylated human FcRn). The assay can be described thus: SPR Biacore 8K+, biotinylated hFcRn on SA chip (~500-600 RU), pH 6.0, bivalent analyte fit.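 Also: analytes were Fc proteins binding to biotinylated human FcRn captured on a Series S streptavidin sensor chip.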
For assay [9] the target is unchanged. The assay can be described thus: SPR Biacore 8K+, biotinylated hFcRn on SA chip (~500-600 RU), pH 6.0, bivalent analyte fit (kd1).
The target is the same in assay [10]. Nature of the assay: SPR Biacore 8K+, biotinylated hFcRn on SA chip (~500-600 RU), pH 6.0, bivalent analyte fit (KD1).

Five molecules from patent US20240368250A1 (Ablynx, published 2024) can be followed below.

The koff is the rate constant with which the complex falls apart. Low values mean a long-lived complex, high ones a short-lived complex. For orientation: kon means the second-order rate constant of association.

B1: T-0263-00_TP117 (antibody, human IgG1, kappa)
heavy 1: not shown
heavy 2: EVQLVESGGGLVQPGGSLRLSCAASGFNIRDTYIHWVRQAPGKGLEWVARIYPTQGYTRYADSVKGRFTISADTSKNTAYLQMNSLRAEDTAVYYCSRWGGEGFYAMDYWGQGTLVTVSSASTKGPSVFPLAPSSKSTSGGTAALGCLVKDYFPEPVTVSWNSGALTSGVHTFPAVLQSSGLYSLSSVVTVPSSSLGTQTYICNVNHKPSNTKVDKKVEPKSCDKTHTCPPCPAPELLGGPSVFLFPPKPKDTLMISRTPEVTCVVVDVSHEDPEVKFNWYVDGVEVHNAKTKPREEQYNSTYRVVSVLTVLHQDWLNGKEYKCKVSNKALPAPIEKTISKAKGQPREPQVCTLPPSRDELTKNQVSLSCAVKGFYPSDIAVEWESNGQPENNYKTTPPVLDSDGSFFLVSKLTVDKSRWQQGNVFSCSVMHEALHNRFTQKSLSLSPG
light: not shown
notes: Full-length IgG1 with knob-in-hole mutations (hole chain H435R, Y436F), no C-terminal fusion
On to B1, for which, in [1], the ka2 is 3.1e-05 1/RUs and the kd2 was 0.001 s⁻¹. Also, the Kd in assay [2] is 1300 nM. Further, the koff in [3] is 0.16 s⁻¹. The kon in assay [4] is 120000 M⁻¹ s⁻¹.

B2: TPP-66174 (Fc fusion)
chain 1: DVQLVESGGGVVQAGGSLSISCAASGGSLSNYVLGWFRQAPGKEREFVAAINWRGDITIGPPNVEGRFTISRDNAKNTGYLQMNSLAPDDTALYYCGAGTPLNPGAYIYDWSYDYWGRGTLVTVSSDKTHTCPPCPAPEAAGGPSVFLFPPKPKDTLYITREPEVTCVVVDVSQEDPEVQFNWYVDGVEVHNAKTKPREEQFNSTYRVVSVLTVLHQDWLNGKEYKCKVSNKGLPSSIEKTISKAKGQPREPQVYTLPPCQEEMTKNQVSLWCLVKGFYPSDIAVEWESNGQPENNYKTTPPVLDSDGSFFLYSKLTVDKSRWQEGNVFSCSVMHEALHNHYTQKSLSLSLGGGGGSGGGGSGGGGSGGGGSGGGGSGGGGSGGGGSEVQLVESGGGVVQPGGSLRLSCAASGFTFRSFGMSWVRQAPGKGPEWVSSISGSGSDTLYADSVKGRFTISRDNSKNTLYLQMNSLRPEDTALYYCTIGGSLSRSSQGTLVTVSSA
chain 2: DVQLVESGGGVVQAGGSLSISCAASGGSLSNYVLGWFRQAPGKEREFVAAINWRGDITIGPPNVEGRFTISRDNAKNTGYLQMNSLAPDDTALYYCGAGTPLNPGAYIYDWSYDYWGRGTLVTVSSDKTHTCPPCPAPEAAGGPSVFLFPPKPKDTLYITREPEVTCVVVDVSQEDPEVQFNWYVDGVEVHNAKTKPREEQFNSTYRVVSVLTVLHQDWLNGKEYKCKVSNKGLPSSIEKTISKAKGQPREPQVCTLPPSQEEMTKNQVSLSCAVKGFYPSDIAVEWESNGQPENNYKTTPPVLDSDGSFFLVSKLTVDKSRWQEGNVFSCSVMHEALHNRFTQKSLSLSLG
notes: IgG4 FALA Fc (YTE) knob-in-hole, C-terminal ALB23002 via 35GS; also called ALB23002 ISVD-Fc(YTE) polypeptide
In assay [5], B2 returned a Kd of 21.5 nM, an off-rate constant (koff) of 0.00104 s⁻¹ and an association rate constant (kon) of 48400 M⁻¹ s⁻¹. The kon in assay [6] amounted to 65000 M⁻¹ s⁻¹. The molecule also gave a koff in assay [7] of 0.0819 s⁻¹. In [8], the KD2 was 2.04 M, the ka2 is 55.8 1/RUs and the kd2 was determined as 114 s⁻¹. In [9], this molecule yielded an off-rate (koff) of 0.00786 s⁻¹. For the same molecule, the Kd in assay [10] was determined as 121 nM.

B3: TPP-66151 (Fc fusion)
chain 1: DVQLVESGGGVVQAGGSLSISCAASGGSLSNYVLGWFRQAPGKEREFVAAINWRGDITIGPPNVEGRFTISRDNAKNTGYLQMNSLAPDDTALYYCGAGTPLNPGAYIYDWSYDYWGRGTLVTVSSDKTHTCPPCPAPEAAGGPSVFLFPPKPKDTLMISRTPEVTCVVVDVSQEDPEVQFNWYVDGVEVHNAKTKPREEQFNSTYRVVSVLTVLHQDWLNGKEYKCKVSNKGLPSSIEKTISKAKGQPREPQVYTLPPCQEEMTKNQVSLWCLVKGFYPSDIAVEWESNGQPENNYKTTPPVLDSDGSFFLYSKLTVDKSRWQEGNVFSCSVMHEALHNHYTQKSLSLSLG
chain 2: DVQLVESGGGVVQAGGSLSISCAASGGSLSNYVLGWFRQAPGKEREFVAAINWRGDITIGPPNVEGRFTISRDNAKNTGYLQMNSLAPDDTALYYCGAGTPLNPGAYIYDWSYDYWGRGTLVTVSSDKTHTCPPCPAPEAAGGPSVFLFPPKPKDTLMISRTPEVTCVVVDVSQEDPEVQFNWYVDGVEVHNAKTKPREEQFNSTYRVVSVLTVLHQDWLNGKEYKCKVSNKGLPSSIEKTISKAKGQPREPQVCTLPPSQEEMTKNQVSLSCAVKGFYPSDIAVEWESNGQPENNYKTTPPVLDSDGSFFLVSKLTVDKSRWQEGNVFSCSVMHEALHNRFTQKSLSLSLGGGGGSGGGGSGGGGSGGGGSGGGGSGGGGSGGGGSVKVKFWPRGEEKVVDTSKIAWVLRADKTVMFKYDDNGKKGYGVVLEKDAPKELLDMLARAEREK
In assay [5], B3 displayed a Kd of 2.61 nM, a dissociation rate constant (koff) of 0.00031 s⁻¹ and a kon of 119000 M⁻¹ s⁻¹. Moreover, the on-rate (kon) in [6] came to 102000 M⁻¹ s⁻¹. For the same molecule, the koff in assay [7] came out at 0.00175 s⁻¹. Moreover, in [8], the KD2 is 2.08 M, the ka2 was 6.98e-05 1/RUs and the kd2 worked out at 0.000145 s⁻¹. Besides, the off-rate (koff) in assay [9] was 0.148 s⁻¹. Also, the Kd in assay [10] is 1460 nM.

B4: TPP-66148 (Fc fusion)
chain 1: DVQLVESGGGVVQAGGSLSISCAASGGSLSNYVLGWFRQAPGKEREFVAAINWRGDITIGPPNVEGRFTISRDNAKNTGYLQMNSLAPDDTALYYCGAGTPLNPGAYIYDWSYDYWGRGTLVTVSSDKTHTCPPCPAPEAAGGPSVFLFPPKPKDTLMISRTPEVTCVVVDVSQEDPEVQFNWYVDGVEVHNAKTKPREEQFNSTYRVVSVLTVLHQDWLNGKEYKCKVSNKGLPSSIEKTISKAKGQPREPQVYTLPPCQEEMTKNQVSLWCLVKGFYPSDIAVEWESNGQPENNYKTTPPVLDSDGSFFLYSKLTVDKSRWQEGNVFSCSVMHEALHNHYTQKSLSLSLGGGGGSGGGGSGGGGSGGGGSGGGGSGGGGSGGGGSEVQLVESGGGVVQPGGSLRLSCAASGLTFSSYAMGWFRQAPGKERERVVSISRGGGYTYYADSVKGRFTISRDNSKNTVYLQMNSLRPEDTALYYCAAARYWATGSEYEFDYWGQGTLVTVSSA
chain 2: DVQLVESGGGVVQAGGSLSISCAASGGSLSNYVLGWFRQAPGKEREFVAAINWRGDITIGPPNVEGRFTISRDNAKNTGYLQMNSLAPDDTALYYCGAGTPLNPGAYIYDWSYDYWGRGTLVTVSSDKTHTCPPCPAPEAAGGPSVFLFPPKPKDTLMISRTPEVTCVVVDVSQEDPEVQFNWYVDGVEVHNAKTKPREEQFNSTYRVVSVLTVLHQDWLNGKEYKCKVSNKGLPSSIEKTISKAKGQPREPQVCTLPPSQEEMTKNQVSLSCAVKGFYPSDIAVEWESNGQPENNYKTTPPVLDSDGSFFLVSKLTVDKSRWQEGNVFSCSVMHEALHNRFTQKSLSLSLG
notes: IgG4 FALA Fc knob-in-hole, C-terminal ALBX00002 via 35GS
In assay [5], B4 showed a Kd of 5.1 nM, a koff of 0.000247 s⁻¹ and an association rate constant (kon) of 48500 M⁻¹ s⁻¹. The same molecule registered an association rate constant (kon) in assay [6] of 107000 M⁻¹ s⁻¹. The molecule further showed a koff in [7] of 0.00187 s⁻¹. Moreover, in assay [8], the KD2 stood at 2.14 M, the ka2 was 3.33e-05 1/RUs and the kd2 worked out at 7.12e-05 s⁻¹. Moreover, the koff in assay [9] was determined as 0.11 s⁻¹. In assay [10], this molecule registered a Kd of 1030 nM.

B5: TPP-66149 (Fc fusion)
chain 1: DVQLVESGGGVVQAGGSLSISCAASGGSLSNYVLGWFRQAPGKEREFVAAINWRGDITIGPPNVEGRFTISRDNAKNTGYLQMNSLAPDDTALYYCGAGTPLNPGAYIYDWSYDYWGRGTLVTVSSDKTHTCPPCPAPEAAGGPSVFLFPPKPKDTLMISRTPEVTCVVVDVSQEDPEVQFNWYVDGVEVHNAKTKPREEQFNSTYRVVSVLTVLHQDWLNGKEYKCKVSNKGLPSSIEKTISKAKGQPREPQVYTLPPCQEEMTKNQVSLWCLVKGFYPSDIAVEWESNGQPENNYKTTPPVLDSDGSFFLYSKLTVDKSRWQEGNVFSCSVMHEALHNHYTQKSLSLSLGGGGGSGGGGSGGGGSGGGGSGGGGSGGGGSGGGGSEVQLVESGGGVVQPGDSLRLSCAASGGTFSTYVMGWFRQAPGKEREFVSAISQNSIHTYYANSVKGRFTISRDNSKNTVYLQLNSLRPEDTALYYCAASRFTSWYTADYEYDYWGQGTLVTVSSA
chain 2: DVQLVESGGGVVQAGGSLSISCAASGGSLSNYVLGWFRQAPGKEREFVAAINWRGDITIGPPNVEGRFTISRDNAKNTGYLQMNSLAPDDTALYYCGAGTPLNPGAYIYDWSYDYWGRGTLVTVSSDKTHTCPPCPAPEAAGGPSVFLFPPKPKDTLMISRTPEVTCVVVDVSQEDPEVQFNWYVDGVEVHNAKTKPREEQFNSTYRVVSVLTVLHQDWLNGKEYKCKVSNKGLPSSIEKTISKAKGQPREPQVCTLPPSQEEMTKNQVSLSCAVKGFYPSDIAVEWESNGQPENNYKTTPPVLDSDGSFFLVSKLTVDKSRWQEGNVFSCSVMHEALHNRFTQKSLSLSLG
notes: IgG4 FALA Fc knob-in-hole, C-terminal T023500029 via 35GS
Turning to B5, the Kd in assay [5] turned out to be 8.2 nM; in [10], 1200 nM. In addition, the koff in [5] stood at 0.000511 s⁻¹; in assay [7], 0.000503 s⁻¹; in assay [9], 0.104 s⁻¹. The results for the kon in assay [5] and in assay [6] were 62300 M⁻¹ s⁻¹ and 87000 M⁻¹ s⁻¹, respectively. In [8], the KD2 amounted to 3.39 M. Moreover, the ka2 in assay [8] was 4.37e-05 1/RUs. Further, the kd2 in assay [8] turned out to be 0.000148 s⁻¹.
